Where a chain is given by its changes, count along the chain named.

Results on 19 molecules are retold here after patent US20170362330A1 (University of California, published 2017).

T1: recombinant Fc fusion protein composed of the Sushi domain 1 and 2 of human CD46 (human, UniProt P15529 35-159)
T1 construct: domain: Sushi domain 1 and 2; Produced in HEK293 cells, purified by protein A; also called CD46-Fc fusion; recombinant CD46-Fc fusion protein; not shown: Fc part
T1 sequence (looked up): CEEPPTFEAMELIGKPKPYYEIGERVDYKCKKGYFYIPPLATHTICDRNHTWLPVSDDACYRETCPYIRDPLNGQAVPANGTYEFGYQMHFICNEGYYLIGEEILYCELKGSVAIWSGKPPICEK

B1: YS8 (antibody, V domains shown)
VH: QVQLQESGGGVVQPGRSLRLSCAASGFTFSSYGMHWVRQAPGKGLEWVAVISYDGSNKYYADSVKGRFTISRDNSKNTLYLQMNSLRAEDTAVYYCAKVMGLAAAGLDAFDIWGQGTTVTVSS
VL: NFMLTQPASLSGSPGQSITISCTGTSSDVGGYNYVSWYQQHPGYAPKLMIYDVSNRPSGVSNRFSGSKSGNTASLTISGLQAEDEADYYCSSYTSSSTPWVFGGGTKLTVL
notes: Human scFv from phage/yeast display, converted into full human IgG1
B2: 2C8 (antibody, V domains shown)
VH: B1 VH with Q1E, Q5V, V93E, T118L
VL: B1 VL with N1Q, F2S, M3A, L10V, Y44K, D87Y, T98D, K107Q
notes: as for B1
B3: YS4 (antibody, V domains shown)
VH: QVQLQESGGGLVQPGGSLRLSCAASGFTFSNYAMSWVRQAPGKGLEWVSTISGSGSSTFYVDSVKGRFTISRDNSKNTLYLQMNSLRAEDTAVYYCAQGLYSSGWANWFDPRGQGTLVTVSS
VL: KIVLTQSPSSLSASVGDTVTIACRASRDIRNDLAWYQQKPGKAPKLLIYGASSLQSGVPSRFSGSGSGTEFILTISSLQPEDFATYYCHRLNSYPLTFGGGTKVDIK
notes: as for B1
B4: YS7 (antibody, V domains shown)
VH: QVQLVQSGGGVVQPGRSLRLSCAASGFTFSSYAMHWVRQAPGKGLEWVAVISYDGSNKYYADSVKGRFTISRDTSTNTLYLQMNSLRADDTAVYYCGRESSGSPGVWGQGTTVTVSS
VL: SYVLTQDPAVSVALGQTVRITCQGDSLRSYYASWYQQKPGQAPVLVIYGKNNRPSGIPDRFSGSSSGNTASLTITGAQAEDEADYYCNSRDSSGNQFGGGTKLTVL
notes: as for B1
B5: UA8kappa (antibody, V domains shown)
VH: EVQLVESGGGVVQPGRSLRLSCAASGFTFSSFGMHWVRRAPGKGLEWVAVISYDGSNQYYADSVKGRFTISRDNSKNTLYLQMNSLRAEDTAVYYCGSRPGGGYASGSTVAYWGQGTLVTVSS
VL: NIQMTQSPSSLSASVGDRVTITCRAGQPISTYVNWYQHKPGKAPKLLIYGASNLQSGVPSRFSGGGSATDFTLTISSLQPEDFATYYCQQSYSSLLTFGDGTKVEIK
notes: Human scFv from phage/yeast display, converted into full human IgG1; also called UASkappa
B6: SB2 (antibody, V domains shown)
VH: EVQLVESGGGLVKPGGSLRLSCAASGFTFSDYYMSWIRQAPGKGLEWVSYISSSGSSIYYADSVKGRFTISRDNAKNSLYLQMNSLKAEDTAVYYCARDITDVVGVSFDYWGQGTLVTVSS
VL: DIQLTQSPSSLSASVGDRVTITCRASRSISTYLSWYQQKPGKAPKLLIYDASRLQNGVPSRFSGSGSDTDFTLTISSLQPEDFATYFCQQSYNPPWTFGQGTKLEIK
notes: as for B1
B7: YS11 (antibody, V domains shown)
VH: QVQLVESGGGLVQPGGSLGLSCAASGFTFSNYWMSWVRQAPGKGLEWVANVRQDGGQKYYVDSVKGRFTISRDNAKNSLYLQMNSLRTEDTAVYFCVSQRNSGEHDYWGQGTLVTVSS
VL: SELTQDPAVSVALGQTVRITCQGDSLRSYYASWYQQKPGQAPVLVIYGENSRPSGIPDRFSGSSSGNTASLTITGAQAEDEADYYCNSWDSSGNHVVFGGGTKLTVL
notes: as for B1
B8: YS12 (antibody, V domains shown)
VH: QVQLVESGGGVVQPGRSLRLSCAASGFTFSTYGMHWVRQAPGKGLEWLSFISYDGDEKYYADSVKGRFTISRDNSKNTLYLQMNSLRAEDTAVYWCAKASGYGMGILDYWGQGTLVTVSS
VL: SSELTQDPAVSVALGQTVRITCQGDSLRSYYVSWFQQKPGQAPVFVMYGQNNRPSGISERFSGSSSGNTASLIITGAQAEDEADYYCHSRDSSGTHLRVFGGGTKLTVL
notes: Human scFv from phage/yeast display, converted into full human IgG1; also called YS12 IgG1
B9: YS3 (antibody, V domains shown)
VH: QVQLQESGGGLVQPGGSLRLSCAASGFTFSSYWMSWVRQAPGKGLEWVADIKQDGSEKYYVDSVKGRFTISGDNAKNSLYLQMNSLRAEDTAVYYCAKDVGSTAINYVRAYTWFDPWGQGTLVTVSS
VL: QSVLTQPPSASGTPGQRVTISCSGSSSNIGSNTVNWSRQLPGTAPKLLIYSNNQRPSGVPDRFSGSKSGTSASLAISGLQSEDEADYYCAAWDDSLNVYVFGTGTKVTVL
notes: as for B1
B10: 3G7RY (aka 3G8) (antibody, V domains shown)
VH: EVQLVESGGGLVQPGGSLRLSCAASGFTFSDYYMSWIRQAPGKGLEWVSYISSSGSTIYYADSVKGRFTISRDNSKNTLYLQMNSLRAEDTAVYYCARDYGRIAAAGRRYWGQGTLVTVSS
VL: QSALTQPPSASATPGQRVTISCSGRTSNIGSNHVYWYQQLPGTAPKLLIYRNNQRPSGVPDRFSGSKSGTSASLAISGLRSEDEADYYCATWDDSLSGEVFGGGTKLTVL
notes: Human scFv from phage/yeast display, converted into full human IgG1; elsewhere 3G8 is 3G7RY
B11: YS1 (antibody, V domains shown)
VH: B10 VH with R109H
VL: SSELTQDPAVSVALGQTVRITCQGDTLSTYYANWYQQKPGQAPVLVIYGKNNRPSGIPDRFSGSSSGNTASLTITGAQAEDEADYYCHSRDISGNYLFASGTKLTVL
notes: as for B1
B12: YS6 (antibody, V domains shown)
VH: B10 VH with E1Q, V5Q, L11V, Q13R, R109H
VL: SSELTQDPAVSVALGQTVRITCQGDSLRSYYASWYQQKPGQAPVLVIYGKNNRPSGIPDRFSGSSSGNTASLTITGAQAEDEADYYCNSRDSSGTHLEVFGGGTKVTVL
notes: as for B1
B13: 3G7HY (antibody, V domains shown)
VH: B10 VH with R109H
VL: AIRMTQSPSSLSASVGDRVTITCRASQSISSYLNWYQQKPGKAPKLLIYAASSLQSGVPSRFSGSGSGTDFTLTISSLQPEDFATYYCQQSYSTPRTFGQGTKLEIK
notes: as for B1
B14: 3G7NY (antibody, V domains shown)
VH: B10 VH with R109N
VL: DIVMTQSPLSLPVTPGEPASISCRSSQSLLHSNGYDYLDWYLQKPGQSPQLLIYLGSNRASGVPDRFSGSGSGTDFTLKISRVETEDVGIYYCMQGLQTPSFGQGTKLEIK
notes: as for B1
B15: 3G7 (antibody, V domains shown)
VH: B10 VH with E1Q, V5Q, L11V, Q13R, R109H
VL: B12 VL with L45P, G94S, L97R, E98G, V106L
notes: as for B1
B16: SB1HGNY (antibody, V domains shown)
VH: QVQLQQSGGGVVQPGRSLRLSCAASGFTFSSYAMHWVRQAPGKGLEWVAFIRSDGSKKYYADSVKGRFTISRDNSKNTLYLQMNSLRAEDTAVYYCARHGNYFDSWGQGTLVTVSS
VL: DIQMTQSPSFLSASVGDRVTITCRASQGISSYLAWYQQKPGKAPKLLIYAASTLQSGVPSSFSGSGSGTEFTLTISSLQPEDFATYYCQQLASYPLTFGGGTKVDIK
notes: as for B1
B17: YS9 (antibody, V domains shown)
VH: QVQLVESGGGLIQPGGSLRLSCAASGFTVSSNYMSWVRQAPGKGLEWVSVIYTDGSTYYADSVKGRFTISRDNSKNTLYLQMNSLRAEDTAIYYCARDRGTSGYDWAWFDLWGQGTLVTVSS
VL: SSELTQDPAVSVALGQTVRITCQGDSLRTYYASWYQQRPGQAPILVLYGKNNRPSGIPDRFSGSSSGNTASLTITGAQAEDEADYYCNSRDSSGNHVVFGGGTKLTVL
notes: as for B1
B18: YS5F (antibody, V domains shown)
VH: QVQLVQSGGGVVQPGRSLRLACAASGFTVNNYAMHWVRQAPGKGLEWVAVISYDGNNKYYADSVKGRFTISRDNSKNTLYLQMNSLRAEDTAVYYCAKGGGYFDLWGRGTLVTVSS
VL: QSVLTQPPSVSGAPGQRVTISCTGSSSNIGAGYDVHWYQQLPGTAPKLLIYGNNNRPSGVPDRFSGSKSGTSASLAITGLQAEDEADYYCSSYTSGTWLFGGGTKLTVL
notes: as for B1
B19: YS10 (antibody, V domains shown)
VH: QVQLQESGGGLVQPGGSLRLSCAASGFTFSSYAMSWVRQAPGKGLEWVSAISGSGGSTYYADSVKGRFTISRDNSKNTLYMQMNSLRAEDTAVYYCAKDRYYYGSGKDAFDIWGRGTMVTVSS
VL: QSVLTQPASVSGSPGQSITISCTGTGSDVGSYNYVSWYQQNPGKAPKLMIYEVSNRPSGVSNRFSGSKSGNTASLTISGLQAEDEADYYCSSYTTSSTLVFGGGTKVTVL
notes: as for B1

In this experiment the target is T1, recombinant Fc fusion protein composed …. Description: phage and yeast display selection and FACS screening with recombinant CD46-Fc fusion. An excerpt: To identify novel anti-human CD46 antibodies, a recombinant Fc fusion protein composed of the Sushi domain 1 and 2 of human CD46 was created. As complement elements bind predominantly to domain 3 and 4, the choice of domain 1 and 2 minimize selection of antibodies that could potently interfere with normal complement function. This CD46-Fc fusion was produced and purified from transfected HEK293 cells by protein A affinity chromatography. For human antibody selection, a 5×10⁹ member phagemid display library was created using cDNAs pooled from peripheral blood mononuclear cells of 426 healthy human donors, and the library was selected the recombinant CD46-Fc fusion protein. Following three rounds of selection, binding phagemid were screened by FACS and sequenced. In parallel, an alternatively strategy was employed that involve first selecting the library on live tumor cells followed by transferring the output from round 1 phagemid selection into a yeast surface display vector, and then FACS-based selection using low concentration ligands to enrich high affinity binders to the recombinant CD46-Fc fusion protein. The resulting antibodies bind with high affinity to both live tumor cells and the recombinant human CD46 protein.
For the molecule B1, the binding result is recorded as “binds”.

With B2, the binding result was “binds”. Then B3, with “binds”; and B4, with “binds”; and B5, with “binds”. As to B6, the binding result is “binds”. Next, B7: “binds”. For B8, the binding result is reported as “binds”. In the case of B9, the binding result was “binds”.

As to B10, the binding result is given as “binds”. Next, B11: “binds”; B12: “binds”; B13: “binds”. Next, B14: “binds”; B15: “binds”; B16: “binds”. Then B17, with “binds”. Turning to B18, the binding result is given as “binds”. With B19, the binding result was “binds”.
